Where a chain is given by its changes, count along the chain named.
Target: EGFR on HeLa cells (UniProt P00533 25-1210, limits assumed)
Test: cell-based or functional assay

B1: GOMP001_bsAb_012 (bispecific antibody, human IgG1, kappa, L234A L235A)
heavy 1: EVQLVESGGGLVQPGGSLRLSCAASGFTLSSYTMNWVRKAPGKGLEWVSYISSSSRTIYYSDEVKGRFSISRDNAKNSLYLQMNSLRDEDTALYYCAREDYYDSSGFDNWGQGTLVTVSSASTKGPSVFPLAPSSKSTSGGTAALGCLVADYFPEPVTVSWNSGALTSGVHTFPAVLQSSGLYSLSSVVTVPSSSLGTQTYICNVNHKPSNTKVDEKVEPKSCDKTHTCPPCPAPEAAGGPSVFLFPPKPKDTLMISRTPEVTCVVVDVSHEDPEVKFNWYVDGVEVHNAKTKPREEQYNSTYRVVSVLTVLHQDWLNGKEYKCKVSNKALPAPIEKTISKAKGQPREPQVYTLPPSREEMTDNQVSLTCLVKGFYPSDIAVEWESNGQPENNYKTTPPVLMSDGSFFLASKLTVDKSRWQQGNVFSCSVMHEALHNHYTQKSLSLSPG
light 1: RIRMTQSPSSFSASTGDRVTITCRASQGISSYLAWYQDKPGKAPKLLIYTASTLQSGVPSRFSGSGSGTDFTLTIRSLQSEDFATYYCQQYYSYPRTFGQGTKVEIKRTVAAPSVFIFPPSDKQLKSGTARVVCLLNNFYPREAKVQWKVDNALQSGNSQESVTEQDSKDSTYSLSSTLTLSKADYEKHKVYACEVTHQGLSSPVTKSFNRGEC
heavy 2: QVQLVQSGAEVKKPGASVKVSCKASGYTFTSHWMHWVRYAPGQGLEWIGEFNPSNGRTNYNEKFKSKATMTVDTSTNTAYMELSSLRSEDTAVYYCASRDYDYDGRYFDYWGRGTLVTVSSASTKGPSVFPLAPSSKSTSGGTAALGCLVKDYFPEPVTVSWNSGALTSGVHTFPAVLQSSGLYSLSSVVTVPSSSLGTQTYICNVNHKPSNTKVDKKVEPKSCDKTHTCPPCPAPEAAGGPSVFLFPPKPKDTLMISRTPEVTCVVVDVSHEDPEVKFNWYVDGVEVHNAKTKPREEQYNSTYRVVSVLTVLHQDWLNGKEYKCKVSNKALPAPIEKTISKAKGQPRRPRVYTLPPSREEMTKNQVSLVCLVKGFYPSDIAVEWESNGQPENNYKTTPPVLDSDGSFFLYSVLTVDKSRWQQGNVFSCSVMHEALHNHYTQKSLSLSPG
light 2: DIQMTQSPSSLSASVGDRVTITCSASSSVTYMYWYQRKPGDAPKLLIYDTSNLASGVPSRFSGSGSGTDYTFTISSLQPEDIATYYCQQWSSHIFTFGQGTKVEIKRTVAAPSVFIFPPSDEQLKSGTASVVCLLNNFYPREAKVQWKVDNALQSGNSQESVTEQDSKDSTYSLSSTLTLSKADYEKHKVYACEVTHQGLSSPVTKSFNRGEC
Max killing %: 93.3%
X… HeLa EC50: 0.0395 nM

B2: GOMP001_bsAb_015 (bispecific antibody, human IgG1, kappa, L234A L235A)
heavy 1: QVQLVQSGAEVKKPGASVKVSCKASGYTFTSHWMHWVRKAPGQGLEWIGEFNPSNGRTNYNEEFKSKATMTVDTSTNTAYMELSSLRSEDTAVYYCASRDYDYDGRYFDYWGQGTLVTVSSASTKGPSVFPLAPSSKSTSGGTAALGCLVADYFPEPVTVSWNSGALTSGVHTFPAVLQSSGLYSLSSVVTVPSSSLGTQTYICNVNHKPSNTKVDEKVEPKSCDKTHTCPPCPAPEAAGGPSVFLFPPKPKDTLMISRTPEVTCVVVDVSHEDPEVKFNWYVDGVEVHNAKTKPREEQYNSTYRVVSVLTVLHQDWLNGKEYKCKVSNKALPAPIEKTISKAKGQPREPQVYTLPPSREEMTDNQVSLTCLVKGFYPSDIAVEWESNGQPENNYKTTPPVLMSDGSFFLASKLTVDKSRWQQGNVFSCSVMHEALHNHYTQKSLSLSPG
light 1: B1 light 2 with D1R, R37D, D41K, E122K, S130R
heavy 2: QVQLVESGGGVVQPGRSLRLSCAASGFTFSGYGMHWVRYAPGKGLDWVAIIYYNGNNKYYADRVKGRFTISRDNSKNTLYLQMNSLRAEDTAVYYCARGGGYNWFDPWGRGTLVIVSSASTKGPSVFPLAPSSKSTSGGTAALGCLVKDYFPEPVTVSWNSGALTSGVHTFPAVLQSSGLYSLSSVVTVPSSSLGTQTYICNVNHKPSNTKVDKKVEPKSCDKTHTCPPCPAPEAAGGPSVFLFPPKPKDTLMISRTPEVTCVVVDVSHEDPEVKFNWYVDGVEVHNAKTKPREEQYNSTYRVVSVLTVLHQDWLNGKEYKCKVSNKALPAPIEKTISKAKGQPRRPRVYTLPPSREEMTKNQVSLVCLVKGFYPSDIAVEWESNGQPENNYKTTPPVLDSDGSFFLYSVLTVDKSRWQQGNVFSCSVMHEALHNHYTQKSLSLSPG
light 2: not shown
Max killing %: 100%
X… HeLa EC50: 0.179 nM

B3: GOMP001_bsAb_014 (bispecific antibody, human IgG1, kappa, L234A L235A)
heavy 1: QVQLVQSGAEVKKPGASVKVSCKASGYTFTSYDINWVRKATGQGLEWMGWMNPKSGKTGYAQEFQGRITMTRNTPISTVYMDLSSLRSEDTAVYYCAREGHYDFWTGYYSFDYWGQGTLVTVSSASTKGPSVFPLAPSSKSTSGGTAALGCLVADYFPEPVTVSWNSGALTSGVHTFPAVLQSSGLYSLSSVVTVPSSSLGTQTYICNVNHKPSNTKVDEKVEPKSCDKTHTCPPCPAPEAAGGPSVFLFPPKPKDTLMISRTPEVTCVVVDVSHEDPEVKFNWYVDGVEVHNAKTKPREEQYNSTYRVVSVLTVLHQDWLNGKEYKCKVSNKALPAPIEKTISKAKGQPREPQVYTLPPSREEMTDNQVSLTCLVKGFYPSDIAVEWESNGQPENNYKTTPPVLMSDGSFFLASKLTVDKSRWQQGNVFSCSVMHEALHNHYTQKSLSLSPG
light 1: RIQMTQSPSSLSASVGDRVTITCRASQGIRNDLGWYQDTPGKAPKRLIYAASSLQSGVPSRFSGSGSGTEFTLTISSLQPEDFATYYCLQHYSYPYTFGQGTKLEIKRTVAAPSVFIFPPSDKQLKSGTARVVCLLNNFYPREAKVQWKVDNALQSGNSQESVTEQDSKDSTYSLSSTLTLSKADYEKHKVYACEVTHQGLSSPVTKSFNRGEC
heavy 2: B1 heavy 2
light 2: B1 light 2
Max killing %: 95%
X… HeLa EC50: 0.131 nM

B4: GOMP001_bsAb_013 (bispecific antibody, human IgG1, kappa, L234A L235A)
heavy 1: B2 heavy 1
light 1: B1 light 2 with D1R, R37D, D41K, E122K, S130R
heavy 2: QVQLVQSGAEVKKPGASVKVSCKASGYTFTSYDINWVRYATGQGLEWMGWMNPKSGKTGYAQKFQGRITMTRNTPISTVYMDLSSLRSEDTAVYYCAREGHYDFWTGYYSFDYWGRGTLVTVSSASTKGPSVFPLAPSSKSTSGGTAALGCLVKDYFPEPVTVSWNSGALTSGVHTFPAVLQSSGLYSLSSVVTVPSSSLGTQTYICNVNHKPSNTKVDKKVEPKSCDKTHTCPPCPAPEAAGGPSVFLFPPKPKDTLMISRTPEVTCVVVDVSHEDPEVKFNWYVDGVEVHNAKTKPREEQYNSTYRVVSVLTVLHQDWLNGKEYKCKVSNKALPAPIEKTISKAKGQPRRPRVYTLPPSREEMTKNQVSLVCLVKGFYPSDIAVEWESNGQPENNYKTTPPVLDSDGSFFLYSVLTVDKSRWQQGNVFSCSVMHEALHNHYTQKSLSLSPG
light 2: B3 light 1 with R1D, D38R, K42D, K123E, R131S
Max killing %: 80.8%
X… HeLa EC50: 0.668 nM
